Data published in article PMC10425842.

How the values were obtained:
[1] = molecular target: UBR5^ΔSBB2 (UBR5 mutant with an SBB2 domain deletion) (human) (UniProt O95071); test: cryo-EM 2D classification
[2] = molecular target: UBR5^ΔSBB2 (UBR5 mutant with an SBB2 domain deletion) (human) (UniProt O95071); test: mass photometry

stoichiometry N [1]: 2
stoichiometry N [2]: 2
Substance: UBR5^ΔSBB2 (UBR5 mutant with an SBB2 domain deletion) (from UniProt O95071 1-2799) (enzyme)
